A short description of this series: yeast display, Sf9 membrane polyspecificity reagent, FACS + sequencing; frameworks hold sequencing errors. The gist of the method:
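A nanobody's polyreactivity label depends on the gate it was sorted from. Yeast display cells were stained with 10% biotinylated, detergent-solubilized Sf9 membrane reagent for 1 hour at 4 °C, enriched on streptavidin microbeads and sorted by FACS. The low and high (top ~1%) gates were set on anti-HA fluorescence for expression and streptavidin fluorescence for reagent binding.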
Consider “QVQLVESGGGLVQAGGSLRLSCAASGRTFLFYAMGWYRQAPGKERELVASITLNGGSTYYADSVKGRFTISRDNAKNTVYLQMNSLKPEETAVYYCNKRTRYQIGYGYWGQGTQVTVSS”, for which the “polyreactivity (PSR sort gate)” value is listed as “low polyreactivity”. Under “QVQLVESGGGLVQAGGSLRLSCAASGSTFGKNAMAWYRQAPGKERELVAAITSSGGRTYYADSVKGRFTISRDNAKNTVYLQMNSLKPEDTAVYYCNSVTRRRSLGPWPVEYDYWGQGTQVTVSS” stands “high polyreactivity”; under “QVQLVESGGGLVQAGGSLRLSCAASGRTFLTNAMGWYRQAAGKERELVAAITSSGGNTYYADSVKGRFTISRDNAKNTVYLQMNSLKPEDTAVYYCAAPGYVWYGGRWVYRYYYWGQGTQVTVSS”, “high polyreactivity”; under “QVQLLESGGGLVQAGGSLRLSCASSGRTYWYYAMGWYRQAPGKERELVATITRSTGSTYYADSVKGRFTISRDNAKNTGYLQMNSLKPEDTAVYYCARLYYFNGDYWGQGTQVTVSS”, “high polyreactivity”. Under “QVQLVESGGGLDQAGGSLRLSCAASGNIFYRYAMGWYRQAPWKERELVAAISGNSGNTYYADSVKGRFTISRDNAKNTVYLQMNSLKPEDTAVYYCAAERRAFGHYSWGQGTQVTVSS” stands “high polyreactivity”; under “QVQLVESGGGLVQAGGSLRLSCAASGRTFERYAMGWYRQAPGKERELVAAITSGGSTYYADSVKGRFTISRDNAKNTVYLQMNSLKPEDTAVYYCATSNWWGYDYWGQGTQVTVSS”, “high polyreactivity”. Take “QVQLVESGGGKVQAGGSLRLSCAASGRIFSVYTMGWYSQAPGKERELVAAISSGASTNYADSVKGRFTISRDNAKNTVYLQMNSLKPEDTAVEYCNAQWYLRLGASKTWVDVDYWGQGTQVTVSS”: the “polyreactivity (PSR sort gate)” value was “low polyreactivity”. Under “QVQLVESGGGLVQAGGSLRLSCAASGFTFTGYAMGWYRQAPGKERELVAAISHDGGSTYYADSVKGRFTISRDNAKNTVYLQMNSLKPEDTAVYYCAAAFRAAGRTVRYYWGQGTQVTVSS” stands “high polyreactivity”; under “QVQLVESGGGLVQAGGSLRLSCAASGFTLLWNAMGWYRQAPGKERELVAAINKSGGSTYADSVKGRFTISRDNAKNTVYLQMNSLKPEDTAVYYCAAEVDYSYWPEYARKYYYWGQGTQVTVSS”, “low polyreactivity”; under “QVQLVESGGGLVQAGGSLRLSCADSGRTQWSYAIGWYRQAPGKERELVATISYSGGSTYYADSVKGRFTISRDNAKNTVYLQMNSLKPEATAVYYCNAVARWYVLQVYEYDYWGEGTQVTVSS”, “low polyreactivity”. With “QVQLVESGGGLVQAGGSLRLSCAASGSTSDINAMGWYRQAPGKERELVAVITFSGGSTNYADSVKGRFTISRDNAKNTVYLQMHSLKPEDTAVYYCNADTLTTTRRFNPYDYWGQGTQVTVSS”, the “polyreactivity (PSR sort gate)” value was “low polyreactivity”.

Turning to “QVQIVESGGGLVQAGGSLRLSCAASGRIFDLNAMGWYRQAPGKEREFVASITWSVGSTYYADSVKGRFTISRDNAKNTVYLQMNSLKPEVTAVYYCAARSLSWTPYYYWGQGTQVTVSS”, the “polyreactivity (PSR sort gate)” value was “high polyreactivity”. The entry for “QVQLVESGGGLVQAGGSLRLSCAASGSIFGINAMGWYRQAPGKERELVAAISGSTSRTYYADSVKGRFTISRDNAKNTVYLQMNSLKPEDTAVYYCAVVGLRSVTRRSYYWGQGTQVTVSS” is “high polyreactivity”; for “QVQLVESGGGLVQAGGSLRLSCAATGRIFTRNAMGWYRQAPGKERELVAAISYSGGTTYYADSVKGRFTISRDNAKITVYLQMNSLKPDDTAVYDCAALRPTQRYFTYDYWGHGTQVTVSS” it is “high polyreactivity”; for “QVQLVESGGGLVQAGGSLRLSCAASGSTFGVNAMGWYRQAPGKERELVAVITRSGGSTYYADSVKGRFTISRDNAKNTVYLQMNSLKPEDTAVYYCAKSGVVDWGQGTQVTVSS” it is “low polyreactivity”. Under “QVQLVESGGGLVQAGGSLRLSSAASGRIFTYYTMGWSRQAPGKERELVAAISARGGNTYYADSVKGRFTISRDNAKNTVYLQMNSLKPEDTAVYYCAAGWVTSRTYYTHQIRNPLDYWGQGTQVTVSS” stands “high polyreactivity”; under “QLQLEESGGGLVQAGGSLRLSCAASGFIFYSNAMGWYRKAPGKERELVASIPGDGGTTYYADSVKGRFTISRDNAKNTVYLQMNSLKPEDTAFYYCAKDYIYRGYYTDFRYEDYEYWGQGTQVTVSS”, “low polyreactivity”. Under “QVQHVESGGGLVQAGGSLRLSCAASVSIFGWKAMGWYRKAPGKERQLVAVITCAGSTNYADSVKGRFTISRDNAKNTVYLQMNSLKPEDTAVYYCAAENLGQGGNFAYFGYYYWGQGTQVTVSS” stands “low polyreactivity”; under “HVQLVESGGGLVQAGGSLRLSCAASGRTFGIYAMGWYRHAPGKQRELVAAISKIGTRTYYADSVKGRFTISRDNAKNTVYLQMNSLNPEDTAVYYCAAYPVDAVYQAYRYPYYDEMDYWGQGTQVTVSS”, “low polyreactivity”. Consider “QVQLVESGGGLVQAGGSLRLSCASSGSTFSSYAMGRYRQAPGKERELVAAITRGGSTNYADSVKGRFTISRDNAKNTVYLQMNSLKPEYTAVYYCAADGPIVGTMDYWGQGTQVTVSS”, for which the “polyreactivity (PSR sort gate)” value is “high polyreactivity”. The entry for “QVQLVESGGGLVQAGGSLRLSCAASGRIFEYYVMGWYRQAPGKERELVAAINRRGTSTYYADSVKGRFTISRDNAKNTVDLQMNSLKPEDTAVYYCAAVDRDYARTTTYDYCGQGTQVTVSS” is “high polyreactivity”; for “QVQLVESGGGLVQAGGSLRLSWAASGFTFNRYAMGWYRQAPGKERELVAAISGSGASTYYADSVKGRFTISRDNAKNTVYLQMNSLKPEDTAVYYCATRYSRSYRSRDYYYWGQGTQVTVSS” it is “high polyreactivity”.

As to “QVQLVESGGGLVQAGGSLRLSCAASGRTFLVNAMGWYRQAPGKEREYVAAINFSVGTTTYADSVKGRFTISRDNAKNTVYLQMNSLKPEDTAVYYCNTYGRYWYIREDYWGQGTQVTVSS”, the “polyreactivity (PSR sort gate)” value was “high polyreactivity”. The entry for “QVQLVESGGGLVQAGGSLRLSCAASGSIFNYYAMGWYRQAPGKERELVAAITSGVSTYADSVKGRFTISRDNAKNTVYLQMNSLKPEVTAVYYCADRVTGPRGDYWGQGTQVTVSS” is “low polyreactivity”; for “QVQLVESGGGLVQAGGSLRLSCAASGSIFTIYAMGWYRQAPGKERELVATITGGGGSTYYADSVKGRFTISRDNAKNTVYLQMNSLKPEDTAVYYCATDFRRTRSYGNSRSYGYWGQGTQVTVSS” it is “low polyreactivity”. Consider “QVQLVASGGGLVQAGGSLRLSCAASGSIFSYYTMGWYSQAPGKERELVASISRSGGRTNYADSVKGRFTISRDNAKNTVYLQMNSLKPEDTAVYYCKTERWGPYPHKRYNYWGQGTQVTVSS”, for which the “polyreactivity (PSR sort gate)” value is reported as “high polyreactivity”. The entry for “QVQLVESGGGLVQAGGSLRLSCAASGSIFLAYAMGWYRQAPGKEREFVAAISFSDGSTYYADSVKGRFTISRDNAKNTVYLQMNSLKPEETAVYYCNKGASPDDYDYWGQGTQVTVSS” is “low polyreactivity”; for “QVQLEESGGGLVQAGGSLRLSCAASGSIFITYAMGWYRQAPGKERELVAAIRDSGDRTYYADSVKGRFTISRDTAKNTVYLQMNSLKPEDTGVYYCNARWQETLKYDYWGQGTLVTVSS” it is “low polyreactivity”; for “QVQLVESGGGLVQAGGSLRLSCAASGGIFFIYAMGWYRQAPGKERELVAAISWGGGSTYYADSVKGRFTISRDNAKNTFYLQMNSLKPEDTAVYYCAARLYGRGYYYWGQGTQVTVSS” it is “high polyreactivity”.

For “QVQLVESGGGLVQAGGSLRLSCAASGRTFFRNAMGWYRQAPGKERELVAAISSSGGSTYADSVKGRFTISRDNAKNTVYLQMNSLKPEDTAVYYCAATVRGKRSTYDYWGQGTQVTVSS”, the “polyreactivity (PSR sort gate)” value is listed as “high polyreactivity”. Turning to “QVQLVESGGGLVQAGGSLRLSCAASGLTSNGYHMGWYRQAPGKERELVAGITSGGSTYYADSVKGRFTISRDNAKNTVYLQMNSLKPEDTAVYYCNADVTYYIVWEYDYWGQGTQVTVSS”, the “polyreactivity (PSR sort gate)” value is “low polyreactivity”. In the case of “QVQLVESGGGLVQAGGSLRLSCAASGRTFTYNTMGWYRQAPGKERELVAAISSRGGRTYYADSVKGRFTISRDNAKNTVYLQLNSLKPEDTAVYACAVYGYYALTHWEYDYWGQGTQVTVSS”, the “polyreactivity (PSR sort gate)” value was “high polyreactivity”. The entry for “QVQLVESGGGLVQAGGSLRLSCAASGITFYEYDMGWYRQAPGKERELVAAITSRGGSTYYADSVKGRFTISRDNAKNTVYLQMNSLKPEDTAVYYCNAVRGWLYVFSYPYWDDEYWGQGTQVTVSS” is “high polyreactivity”. As for “QVQLVESGGGLVQAGGSLRLSCTASGGIFRYYAMGWYRPAPGKERELVAGISRSGGSTHYADSVKGRFTISRDNAKNTVYLQMNSLKREDTAVYYCAADTYFTKYDYWGQGTQVTVSS”, the “polyreactivity (PSR sort gate)” value was “high polyreactivity”. The entry for “QVQLVESGGGLVQAGGSLRLSCAVSGRIFRRNVMGWSRPAPGKERALVAGSSYSGDSTYYADSVKGRFTISRDNAKNTVYLQMNSLKPEDTAVYYCAAALAHYRGMYYWGQGTQVTVSS” is “low polyreactivity”; for “QVQLVESGGGLVQAGGSLRLSCAASGSIFPTNAMGWYRQAPGKERELVAAITSGGGTNYADSVMGRFTISRDNAKNTVYLQMNSLKTEDTAVYYCAADRYVEYGYWGQGTQVTVSS” it is “low polyreactivity”. With “QVQLVESGGGLVQAGGSLRLSCADSGRIFRYYAMGWYRQAPGKERELVAAITWSGGTTIYADSVKGRFSISRDNAKNTVYLQMNSLKPEDTAVYYCNAARSRGANLVPPYRLYYWGQGTQVTVSS”, the “polyreactivity (PSR sort gate)” value is reported as “low polyreactivity”. The entry for “QVQLVESGGGLVQAGGSLRLSCAASGFIFASYAMGWYRQAPGKERELVAAISYRGGTTYYADSVKGRFTISRDNAKNTVYLQMNSLKPEDTALYYCAADSPENRYNYWGQGTQVTVSS” is “high polyreactivity”. The entry for “QVQLVESVGGLVQAGGSLRLSCAASGRTFTGNAMGWYRQAPGKERELVAAISQRGGRTNYADSVKGRFTISRDNAKNTVYLQMNSLKPEDTAVYYCAADQSYPKRLPSFEYWGQGTQVTVSS” is “low polyreactivity”; for “QVQLVESGGGLVQAGGSLRLSCAASGSTFSRYTMGWYRQAPGKEWELVAAISFRASSTYYADSVKGRFTISRDNAKNTVYLQMNSLKPEDTAVYYCAARNVFRYRWPIEYDYWGQGTQVTVSS” it is “low polyreactivity”.

For the origin of these results see the nanobody polyreactivity screen of Harvey et al. (2022).
